These results are taken from publication PMC11376372.

The target of test [1] is reduced wheat protein disulfide isomerase (wPDI^R) (wheat) (UniProt P52589). Nature of the test: ITC; MicroCal VP-ITC; 0.3 mM 1Dx5-NTD^AAA titrated into 70 uM wPDI, 27 additions of 10 uL; 1 mM DTT in both buffers (reduced wPDI); single-site binding model.
For test [2], the target named is oxidized wheat protein disulfide isomerase (wPDI^O) (wheat) (UniProt P52589). Put plainly: ITC; MicroCal VP-ITC; 0.3 mM 1Dx5-NTD^AAA titrated into 70 uM wPDI, 27 additions of 10 uL; 0.5 mM GSSG in both buffers (oxidized wPDI); single-site binding model.

As for “1Dx5-NTD^AAA, triple mutant of the N-terminal domain of HMW glutenin subunit 1Dx5 in which all three cysteines were mutated into alanine (domain or fragment)”, the Kd in test [1] is 2.59 µM; in test [2], 316 µM.
